We go through two molecules from patent US20030100094A1 (NEW ENGLAND BIOLABS, published 2003).

In assay [1] the target is T1, BbvCI restriction endonuclease subunit R2 (wild type, 285 aa, 32 kDa) (Bacillus brevis).
T1 construct: Recombinant, co-expressed with the R1 subunit in E. coli; also called BbvCI-R2; subunit 2
T1 chain: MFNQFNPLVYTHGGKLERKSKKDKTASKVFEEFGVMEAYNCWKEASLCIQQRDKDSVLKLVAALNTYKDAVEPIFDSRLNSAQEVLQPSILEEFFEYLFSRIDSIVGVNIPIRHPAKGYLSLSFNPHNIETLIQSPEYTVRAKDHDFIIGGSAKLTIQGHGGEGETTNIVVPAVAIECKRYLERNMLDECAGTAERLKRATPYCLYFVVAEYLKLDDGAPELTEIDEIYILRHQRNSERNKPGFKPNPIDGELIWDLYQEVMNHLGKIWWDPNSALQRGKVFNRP
Put plainly: SDS-PAGE of purified enzyme (subunits co-purify). From the text: (§1) FIG. 9. SDS-PAGE analysis of purified wild type R.BbvCI restriction endonuclease (lanes 2-3: prep. ‘Dan’; lanes 4-6: prep. ‘Diane’), and of purified N.BbvCI nicking endonucleases 2-12 (lanes 7-9), and 1-37 (lanes 10-12). Lane 1 (far left) contains molecular weight markers. All the enzymes preps migrate as two bands of roughly equal intensity signifying that the enzymes are heterodimers with 1:1 subunit stoichiometry.

The target in assay [2] is T2, BbvCI subunit R2 E177G (mutated subunit of nicking enzyme N.BbvCI 2-12) (Bacillus brevis).
T2 construct: The R2 subunit of enzyme mutant 2-12 (R1+:R2E177G), also called Nb.BbvCI; also called ECK->GCK
T2 chain: T1 chain with E177G
Put plainly: SDS-PAGE of purified enzyme (subunits co-purify).
From the text: as §1

Substitutions are numbered along the chain they refer to. Names and notes keep the numbering of the source.

B1: BbvCI restriction endonuclease subunit R1 (wild type, 275 aa, 31 kDa) (enzyme)
chain: MINEDFFIYEQLSHKKNLEQKGKNAFDEETEELVRQAKSGYHAFIEGINYDEVTKLDLNSSVAALEDYISIAKEIEKKHKMFNWRSDYAGSIIPEFLYRIVHVATVKAGLKPIFSTRNTIIEISGAAHREGLQIRRKNEDFALGFHEVDVKIASESHRVISLAVACEVKTNIDKNKLNGLDFSAERMKRTYPGSAYFLITETLDFSPDENHSSGLIDEIYVLRKQVRTKNRVQKAPLCPSVFAELLEDILEISYRASNVKGHVYDRLEGGKLIRV
notes: Recombinant, co-expressed with the R2 subunit in E. coli; also called BbvCI-R1; subunit 1
For B1, the binding result in assay [1] and in assay [2] was “binds” in each case.

B2: BbvCI subunit R1 E167G (mutated subunit of nicking enzyme N.BbvCI 1-37) (enzyme)
chain: B1 chain with E167G
notes: The R1 subunit of enzyme mutant 1-37 (R1E167G:R2+), also called Nt.BbvCI; also called EVK->GVK
As for B2, the binding result in assay [1] is listed as “binds”.
